This note sets out measurements from patent US20240287169A1 (AULOS BIOSCIENCE, published 2024).

Assay [1] has as its target T1, Human IL-2 (human, UniProt P60568 21-153). Briefly: cell-based or functional assay.
The target in assay [2] is T1, Human IL-2. In words: SPR, multi-cycle, antibody captured, hIL-2 analyte. The text has this:
(§1) The SPR analysis was done on Biacore […] (GE healthcare, USA) on CM5 chips (cat:br10005-30, GE healthcare, USA). The chip was crosslinked with primary capture Ab against human IgG (Cat: br-1008-39, GE healthcare, USA) or primary capture antibody against mouse IgG (Cat: BR-1008-38, GE healthcare, USA) to a target of 8000RU. After cross-linking of the primary Ab, the mouse and human tested antibodies were immobilized on the primary Ab to a target of approximately additional 500RU. […] At the end of each cycle the analyte and tested antibody were stripped from the chip using 3M MgCl₂ and new tested Ab was loaded on the chip as described above. When indicated, instead of stripping the antibodies, kinetics was determined by injecting series of analyte concentrations in one cycle by the Single-cycle kinetics method. Binding kinetics were determined by the 1:1 Binding model using the Biacore T200 evaluation software.

For the next assay, the target named is T2, cynomolgus monkey IL-2 (cynomolgus monkey, UniProt Q29615 21-154).
T2 construct: also called cIL-2
T2 sequence (Q29615 21-154 limits assumed): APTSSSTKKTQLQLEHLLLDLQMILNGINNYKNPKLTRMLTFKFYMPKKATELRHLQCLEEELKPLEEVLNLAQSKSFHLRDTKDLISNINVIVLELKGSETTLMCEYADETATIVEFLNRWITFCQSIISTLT
Briefly: SPR, multi-cycle, antibody captured, cynomolgus IL-2 analyte.
From the text: as §1

For assay [3], the target named is T1, Human IL-2. Briefly: SPR (Biacore T200), AU-007 captured on a CM5 chip, h-IL2 as analyte at 0.0625-10 nM, multi-cycle, 1:1 binding model. The protocol:
Affinity and epitope binding site was assessed using Surface Plasmon Resonance (SPR). […] Subsequently, soluble hCD25 was injected followed by the injection of soluble hCD122. […] Diagrams represent SPR sensorgram traces of complex formation of IL-2R/Cytokine.
The chip was crosslinked with a human antibody capture kit (BR100839, GE Healthcare, USA) according to the manufacturer's protocol to target 3000-4000 RU. […] Between each cycle, all channels underwent regeneration using 3M MgCl₂. Binding kinetics were determined by the 1:1 Binding model using the Biacore […] evaluation software, version 3.1.

The target of a further assay is T3, Mouse IL-2 (mouse, UniProt P04351 21-169).
T3 construct: Soluble analyte in SPR; also called mIL-2
T3 sequence (looked up): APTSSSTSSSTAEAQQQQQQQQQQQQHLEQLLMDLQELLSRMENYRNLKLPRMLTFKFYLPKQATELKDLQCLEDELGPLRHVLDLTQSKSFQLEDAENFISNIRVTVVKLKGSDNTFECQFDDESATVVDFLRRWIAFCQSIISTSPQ
In words: no assay described; stated in the methods of the LL/2 tumor model.

Assay [4] concerns the target T4, BDG17.069 (AU-007)/hIL-2 complex (human, UniProt P60568 21-153).
T4 construct: On the SPR chip: captured AU-007 saturated with 50 nM hIL-2; In the HEK reporter assay: hIL-2 titrated in the presence of 200 nM AU-007; also called IL2+AU-007; A/IL-2
Briefly: SPR, AU-007 captured on CM5 chip and loaded with 10nM hIL-2; 1000nM hCD25 injected before hCD122 (1st set) and after hCD122 (2nd set).

In another assay the target is T5, BDG17.054/hIL-2 complex (human, UniProt P60568 21-153).
T5 construct: Captured humanized IgG1 saturated with 50 nM hIL-2 on the SPR chip; also called humanized IgG-hIL-2 complex
T5 sequence (P60568 21-153 limits assumed, one chain of several): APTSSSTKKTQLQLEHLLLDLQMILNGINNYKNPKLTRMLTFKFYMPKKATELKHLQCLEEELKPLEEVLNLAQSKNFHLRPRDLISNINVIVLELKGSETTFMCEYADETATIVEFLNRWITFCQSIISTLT
In words: SPR, antibody captured on CM5 chip and loaded with hIL-2; 1000 nM CD25 injected before CD122 (first set) and after CD122 (second set). The protocol: (§2) Subsequently, running buffer was injected for 60 seconds to reach a steady baseline, and then 1000 nM of CD122 was injected for 30 seconds at a flow rate of 30 ul/min. To test CD122 binding, the same experiment was repeated in reverse order, with CD122 injected first flowed by injection of CD25.

Another assay concerns the target T6, BDG17.053/hIL-2 complex (human, UniProt P60568 21-153).
T6 construct: Captured humanized IgG1 saturated with 50 nM hIL-2 on the SPR chip; also called humanized IgG-hIL-2 complex
In words: SPR, captured antibody saturated with hIL-2, CD25 injected.

The target in another assay is T7, BDG17.038/hIL-2 complex (human, UniProt P60568 21-153).
T7 construct: Captured humanized IgG1 saturated with 50 nM hIL-2 on the SPR chip; also called humanized IgG-hIL-2 complex
T7 sequence (P60568 21-153 limits assumed, one chain of several): as above
In words: SPR, antibody captured on CM5 chip and loaded with 50 nM hIL-2; 1000 nM CD25 injected before CD122. The protocol: as §2

The target of assay [5] is T8, Fc-tagged CD122 (extracellular domain) (human, UniProt P14784 27-240).
T8 construct: extracellular domain; Captured on an anti-human Fc chip; also called Fc tagged hCD122; not shown: Fc tag
T8 sequence (looked up): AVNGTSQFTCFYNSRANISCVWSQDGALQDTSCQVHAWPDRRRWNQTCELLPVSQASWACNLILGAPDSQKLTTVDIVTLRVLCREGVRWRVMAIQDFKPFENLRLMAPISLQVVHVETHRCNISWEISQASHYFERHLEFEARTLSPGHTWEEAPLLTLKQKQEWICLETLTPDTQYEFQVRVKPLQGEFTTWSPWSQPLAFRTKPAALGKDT
Briefly: SPR, Fc tagged hCD122 captured on a CM5 chip, soluble hCD25 injected. The protocol:
Affinity and epitope binding site was assessed using Surface Plasmon Resonance (SPR). […] […] […] Diagrams represent SPR sensorgram traces of complex formation of IL-2R/Cytokine.

In another assay the target is T9, biotinylated human CD25 (human, UniProt P01589 22-213, limits assumed, biotinylated).
T9 construct: Captured on a streptavidin-coated chip; also called biotinylated hCD25
T9 sequence (looked up): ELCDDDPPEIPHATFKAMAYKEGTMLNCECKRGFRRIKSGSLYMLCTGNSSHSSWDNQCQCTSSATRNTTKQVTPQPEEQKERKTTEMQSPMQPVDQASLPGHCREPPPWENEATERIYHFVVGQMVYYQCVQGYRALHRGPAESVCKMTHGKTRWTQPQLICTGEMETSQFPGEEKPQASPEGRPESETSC
Briefly: SPR, biotinylated hCD25 on the chip, soluble hCD25 injected as a control.

For a further assay, the target named is T10, BDG17.043/hIL-2 complex (human, UniProt P60568 21-153).
T10 construct: Captured humanized IgG1 saturated with 50 nM hIL-2 on the SPR chip; also called humanized IgG-hIL-2 complex
T10 sequence (P60568 21-153 limits assumed, one chain of several): as the sequence (P60568 21-153 limits assumed, one chain of several) above
In words: SPR, antibody captured on CM5 chip and loaded with 50 nM hIL-2; 1000 nM CD25 injected before CD122.

Another assay concerns the target T11, BDG17.023-hIL-2 complex (human, UniProt P60568 21-153).
T11 construct: Non-covalent complex made on the SPR chip: immobilized BDG17.023 IgG1 saturated with 50 nM hIL-2; also called BDG17.023-IL-2 complex
In words: SPR, BDG17.023 on CM5 chip saturated with 50 nM hIL-2; 1000 nM CD25 injected after CD122.

T1 sequence (P60568 21-153 limits assumed): as the sequence (P60568 21-153 limits assumed, one chain of several) above
T6 sequence (P60568 21-153 limits assumed, one chain of several): as the sequence (P60568 21-153 limits assumed, one chain of several) above
T4 sequence (P60568 21-153 limits assumed, one chain of several): as the sequence (P60568 21-153 limits assumed, one chain of several) above
T11 sequence (P60568 21-153 limits assumed, one chain of several): as the sequence (P60568 21-153 limits assumed, one chain of several) above

B1: BDG17.069 (AU-007) (antibody, human IgG1, kappa, L234A L235A, V domains shown)
VH: QVQLVQSGAEVKKPGSSVKVSCKASGYSITDDLIHWVRQAPGQGLEWMGWIDPEDGETNYAQKFQGRVTLTADTSTSTAYMELSSLRSEDTAVYYCARSLDSTWIYPFAYWGQGTLVTVSS
VL: DIVMTQSPDSLAVSLGERATINCKSSQSLLRRGNQKNHLAWYQQKPGQPPKLLIYDASTGQSGVPDRFSGSGSGTDFTLTISSLQAEDVAVYYCLQSYITPPTFGAGTKVEIKR
notes: Human IgG1-LALA
B1: the “IC50 (read off the curve) (%pSTAT5 in CD4+ Tregs of hPBMC stimulated with hIL-2)” value with Human IL-2 [1] was about 1000 pM. Further, the Kd with Human IL-2 [2] was 10.8 pM; with cynomolgus monkey IL-2 it was 11.7 pM; with Human IL-2 [3] it was 10.8 pM. Besides, the koff in the assay with Human IL-2 [2] is 0.000487 s⁻¹; with cynomolgus monkey IL-2, 0.000584 s⁻¹; with Human IL-2 [3] it was 0.000487 s⁻¹. For the same molecule, the kon with Human IL-2 [2] amounted to 4.5e+07 M⁻¹ s⁻¹; in the assay with cynomolgus monkey IL-2 it was 4.98e+07 M⁻¹ s⁻¹; with Human IL-2 [3], 4.5e+07 M⁻¹ s⁻¹. In addition, in the assay with Mouse IL-2, the binding result is reported as “no binding”.

B2: human CD25 (soluble) (receptor, UniProt P01589 22-213, looked up)
chain: T9 sequence (looked up)
notes: Injected as soluble analyte at 1000 nM / 1 uM; also called hCD25; IL-2Rα
B2: the binding result is “no binding (tested: 1000 nM)” in [4]; “no binding (tested: 1000 nM)” with BDG17.054/hIL-2 complex; “no binding (tested: 1000 nM)” in the assay with BDG17.053/hIL-2 complex; “no binding (tested: 1000 nM)” in the assay with BDG17.038/hIL-2 complex; “no binding (tested: 1 uM)” in assay [5]; “no binding (tested: 1 uM)” in the assay with biotinylated human CD25. In addition, the binding result with BDG17.043/hIL-2 complex and with BDG17.023-hIL-2 complex was “no binding (tested: 1000 nM)” throughout.
